Measured values as given in patent US11332512B2, “Peptides and combination of peptides for use in immunotherapy against various tumors” (Immatics Biotechnologies GmbH, priority 2015, dated 2022).

Molecular target: HLA-A*02:01 (Homo sapiens, UniProt P04439, D140Y/D185E/D98H/E176V/E277Q/G131W/G231S/I119V/I121R/I166T/I218V/L300P/L318F/N151K/N90K/P208A/P217A/Q86G/Q94H/R138H/R169H/T345S)
Assay: MHC binding assay: UV-ligand exchange with beta2m ELISA (peptide exchange yield)
Details: binding to HLA-A*02:01, β2m ELISA
Excerpt: Candidate peptides for T cell based therapies according to the present invention were further tested for their MHC binding capacity (affinity). The individual peptide-MHC complexes were produced by UV-ligand exchange, where a UV-sensitive peptide is cleaved upon UV-irradiation, and exchanged with the peptide of interest as analyzed. Only peptide candidates that can effectively bind and stabilize the peptide-receptive MHC molecules prevent dissociation of the MHC complexes. To determine the yield of the exchange reaction, an ELISA was performed based on the detection of the light chain (β2m) of stabilized MHC complexes. The assay was performed as generally described in Rodenko et al. (Rodenko et al., 2006).
96 well MAXISorp plates (NUNC) were coated over night with 2 ug/ml streptavidin in PBS at room temperature, washed 4× and blocked for 1 h at 37° C. in 2% BSA containing blocking buffer. Refolded HLA-A*02:01/MLA-001 monomers served as standards, covering the range of 15-500 ng/ml. Peptide-MHC monomers of the UV-exchange reaction were diluted 100 fold in blocking buffer. Samples were incubated for 1 h at 37° C., washed four times, incubated with 2 ug/ml HRP conjugated anti-β2m for 1 h at 37° C., washed again and detected with TMB solution that is stopped with […]. Absorption was measured at 450 nm. Candidate peptides that show a high exchange yield (preferably higher than 50%, most preferred higher than 75%) are generally preferred for a generation and production of antibodies or fragments thereof, and/or T cell receptors or fragments thereof, as they show sufficient avidity to the MHC molecules and prevent dissociation of the MHC complexes.

Which “Peptide exchange (MHC class I binding score, peptide exchange yield)” value (“Peptide exchange” for short) does the source give for “139 (IILENIQSL; listed as Homo sapiens) [compound 139]” here?
Its value is “+++ (= ≥50% = +++)”.

With “140 (FLDSQITTV; listed as Homo sapiens) [compound 140]” as the substance, how does the “Peptide exchange” value read?
Its value is “+++ (= ≥50% = +++)”.

Which “Peptide exchange” value does the source give for “143 (MLWESIMRV; listed as Homo sapiens) [compound 143]” here?
The value was “+++ (= ≥50% = +++)”.

With “144 (FLISQTPLL; listed as Homo sapiens) [compound 144]” as the substance, how does the “Peptide exchange” value read?
The value was “+++ (= ≥50% = +++)”.

“145 (ALEEKLENV; listed as Homo sapiens) [compound 145]” was tested. Which “Peptide exchange” value did it give?
The value was “+++ (= ≥50% = +++)”.

With “147 (GLLSALENV; listed as Homo sapiens) [compound 147]” as the substance, how does the “Peptide exchange” value read?
Its value is “+++ (= ≥50% = +++)”.

How did the “Peptide exchange” value turn out when “148 (YLILSSHQL; listed as Homo sapiens) [compound 148]” was run?
The value was “+++ (= ≥50% = +++)”.

“150 (VLLDMVHSL; listed as Homo sapiens) [compound 150]” was tested. Which “Peptide exchange” value did it give?
The value was “+++ (= ≥50% = +++)”.

“153 (KLVELEHTL; listed as Homo sapiens) [compound 153]” was tested. Which “Peptide exchange” value did it give?
The value was “+++ (= ≥50% = +++)”.

With “158 (YLDPLWHQL; listed as Homo sapiens) [compound 158]” as the substance, how does the “Peptide exchange” value read?
Its value is “+++ (= ≥50% = +++)”.

“159 (QLGPVPVTI; listed as Homo sapiens) [compound 159]” was tested. Which “Peptide exchange” value did it give?
Its value is “+++ (= ≥50% = +++)”.

How did the “Peptide exchange” value turn out when “160 (TLQEWLTEV; listed as Homo sapiens) [compound 160]” was run?
The value was “+++ (= ≥50% = +++)”.

Which “Peptide exchange” value does the source give for “162 (GLLGNLLTSL; listed as Homo sapiens) [compound 162]” here?
Its value is “+++ (= ≥50% = +++)”.

Which “Peptide exchange” value does the source give for “164 (MLIIRVPSV; listed as Homo sapiens) [compound 164]” here?
Its value is “+++ (= ≥50% = +++)”.

How did the “Peptide exchange” value turn out when “165 (SLLDYEVSI; listed as Homo sapiens) [compound 165]” was run?
Its value is “+++ (= ≥50% = +++)”.

“166 (LLGDSSFFL; listed as Homo sapiens) [compound 166]” was tested. Which “Peptide exchange” value did it give?
The value was “+++ (= ≥50% = +++)”.

Which “Peptide exchange” value does the source give for “167 (LVVDEGSLVSV; listed as Homo sapiens) [compound 167]” here?
Its value is “+++ (= ≥50% = +++)”.

Which “Peptide exchange” value does the source give for “168 (VIFEGEPMYL; listed as Homo sapiens) [compound 168]” here?
Its value is “+++ (= ≥50% = +++)”.

Which “Peptide exchange” value does the source give for “169 (ALADLSVAV; listed as Homo sapiens) [compound 169]” here?
Its value is “+++ (= ≥50% = +++)”.

“173 (RLIDIYKNV; listed as Homo sapiens) [compound 173]” was tested. Which “Peptide exchange” value did it give?
The value was “+++ (= ≥50% = +++)”.

For “175 (SLLDLVQSL; listed as Homo sapiens) [compound 175]”, which “Peptide exchange” value is on record?
Its value is “+++ (= ≥50% = +++)”.

Which “Peptide exchange” value does the source give for “177 (ALINVLNAL; listed as Homo sapiens) [compound 177]” here?
The value was “+++ (= ≥50% = +++)”.

How did the “Peptide exchange” value turn out when “179 (TLGEIIKGV; listed as Homo sapiens) [compound 179]” was run?
Its value is “+++ (= ≥50% = +++)”.

“180 (RLYEEEIRI; listed as Homo sapiens) [compound 180]” was tested. Which “Peptide exchange” value did it give?
Its value is “+++ (= ≥50% = +++)”.

“181 (LLWAPTAQA; listed as Homo sapiens) [compound 181]” was tested. Which “Peptide exchange” value did it give?
Its value is “+++ (= ≥50% = +++)”.

With “182 (GLQDGFQITV; listed as Homo sapiens) [compound 182]” as the substance, how does the “Peptide exchange” value read?
The value was “+++ (= ≥50% = +++)”.

How did the “Peptide exchange” value turn out when “183 (ALSYILPYL; listed as Homo sapiens) [compound 183]” was run?
Its value is “+++ (= ≥50% = +++)”.

With “190 (SLSTELFKV; listed as Homo sapiens) [compound 190]” as the substance, how does the “Peptide exchange” value read?
Its value is “+++ (= ≥50% = +++)”.

“191 (AAIEIFEKV; listed as Homo sapiens) [compound 191]” was tested. Which “Peptide exchange” value did it give?
Its value is “+++ (= ≥50% = +++)”.

Which “Peptide exchange” value does the source give for “193 (ALFHMNILL; listed as Homo sapiens) [compound 193]” here?
The value was “+++ (= ≥50% = +++)”.

“195 (VIIQNLPAL; listed as Homo sapiens) [compound 195]” was tested. Which “Peptide exchange” value did it give?
Its value is “+++ (= ≥50% = +++)”.

“200 (IMPTFDLTKV; listed as Homo sapiens) [compound 200]” was tested. Which “Peptide exchange” value did it give?
The value was “+++ (= ≥50% = +++)”.

Which “Peptide exchange” value does the source give for “204 (SEWGSPHAAVP; listed as Homo sapiens) [compound 204]” here?
Its value is “+++ (= ≥50% = +++)”.

For “207 (KLFETVEEL; listed as Homo sapiens) [compound 207]”, which “Peptide exchange” value is on record?
Its value is “+++ (= ≥50% = +++)”.

With “210 (GLAGDNIYL; listed as Homo sapiens) [compound 210]” as the substance, how does the “Peptide exchange” value read?
The value was “+++ (= ≥50% = +++)”.

“211 (LLTTVLINA; listed as Homo sapiens) [compound 211]” was tested. Which “Peptide exchange” value did it give?
The value was “+++ (= ≥50% = +++)”.

For “213 (ILAVDGVLSV; listed as Homo sapiens) [compound 213]”, which “Peptide exchange” value is on record?
The value was “+++ (= ≥50% = +++)”.

For “214 (ALFETLIQL; listed as Homo sapiens) [compound 214]”, which “Peptide exchange” value is on record?
Its value is “+++ (= ≥50% = +++)”.

“217 (LLWPSSVPA; listed as Homo sapiens) [compound 217]” was tested. Which “Peptide exchange” value did it give?
The value was “+++ (= ≥50% = +++)”.

Which “Peptide exchange” value does the source give for “218 (SLTGANITV; listed as Homo sapiens) [compound 218]” here?
The value was “+++ (= ≥50% = +++)”.

For “220 (ALSELERVL; listed as Homo sapiens) [compound 220]”, which “Peptide exchange” value is on record?
Its value is “+++ (= ≥50% = +++)”.

Which “Peptide exchange” value does the source give for “223 (ALHPVQFYL; listed as Homo sapiens) [compound 223]” here?
Its value is “+++ (= ≥50% = +++)”.

For “224 (LLFDWSGTGRADA; listed as Homo sapiens) [compound 224]”, which “Peptide exchange” value is on record?
Its value is “+++ (= ≥50% = +++)”.

How did the “Peptide exchange” value turn out when “225 (FLPQPVPLSV; listed as Homo sapiens) [compound 225]” was run?
The value was “+++ (= ≥50% = +++)”.

“226 (SLAGNLQEL; listed as Homo sapiens) [compound 226]” was tested. Which “Peptide exchange” value did it give?
The value was “+++ (= ≥50% = +++)”.

With “228 (SLLELDGINLRL; listed as Homo sapiens) [compound 228]” as the substance, how does the “Peptide exchange” value read?
The value was “+++ (= ≥50% = +++)”.

“230 (KLLNMIFSI; listed as Homo sapiens) [compound 230]” was tested. Which “Peptide exchange” value did it give?
Its value is “+++ (= ≥50% = +++)”.

Which “Peptide exchange” value does the source give for “231 (LLDDIFIRL; listed as Homo sapiens) [compound 231]” here?
Its value is “+++ (= ≥50% = +++)”.

Which “Peptide exchange” value does the source give for “237 (ALLEQTGDMSL; listed as Homo sapiens) [compound 237]” here?
Its value is “+++ (= ≥50% = +++)”.

For “239 (VIIKGLEEITV; listed as Homo sapiens) [compound 239]”, which “Peptide exchange” value is on record?
Its value is “+++ (= ≥50% = +++)”.

How did the “Peptide exchange” value turn out when “241 (KQFEGTVEI; listed as Homo sapiens) [compound 241]” was run?
Its value is “+++ (= ≥50% = +++)”.

Which “Peptide exchange” value does the source give for “244 (NVAEIVIHI; listed as Homo sapiens) [compound 244]” here?
The value was “+++ (= ≥50% = +++)”.

“248 (VLMQDSRLYL; listed as Homo sapiens) [compound 248]” was tested. Which “Peptide exchange” value did it give?
Its value is “+++ (= ≥50% = +++)”.

How did the “Peptide exchange” value turn out when “249 (YLYQILQGI; listed as Homo sapiens) [compound 249]” was run?
Its value is “+++ (= ≥50% = +++)”.

With “250 (LMQDSRLYL; listed as Homo sapiens) [compound 250]” as the substance, how does the “Peptide exchange” value read?
The value was “+++ (= ≥50% = +++)”.

For “251 (LLWGNLPEI; listed as Homo sapiens) [compound 251]”, which “Peptide exchange” value is on record?
The value was “+++ (= ≥50% = +++)”.
